Measurements published in patent US20250163162A1 (SYNTHEKINE, published 2025).

T1: IL10Rα/IL2Rγ receptor (human, UniProt Q13651 22-578; P31785 23-369)
T1 sequence (looked up) 1: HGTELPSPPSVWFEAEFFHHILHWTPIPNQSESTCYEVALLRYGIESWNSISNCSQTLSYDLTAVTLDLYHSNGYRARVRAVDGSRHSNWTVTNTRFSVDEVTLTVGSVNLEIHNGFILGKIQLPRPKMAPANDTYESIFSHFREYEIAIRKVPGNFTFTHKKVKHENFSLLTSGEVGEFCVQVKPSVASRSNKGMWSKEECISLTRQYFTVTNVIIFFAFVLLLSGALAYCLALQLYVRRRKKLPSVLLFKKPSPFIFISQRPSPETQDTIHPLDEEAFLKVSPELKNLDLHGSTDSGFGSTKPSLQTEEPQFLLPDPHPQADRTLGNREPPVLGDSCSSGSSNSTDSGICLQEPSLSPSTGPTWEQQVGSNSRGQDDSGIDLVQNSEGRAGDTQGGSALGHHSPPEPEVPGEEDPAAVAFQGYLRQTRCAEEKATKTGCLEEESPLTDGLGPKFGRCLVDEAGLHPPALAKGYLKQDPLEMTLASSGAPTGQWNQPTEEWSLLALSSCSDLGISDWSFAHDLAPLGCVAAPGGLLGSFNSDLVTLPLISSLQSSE
T1 sequence (looked up) 2: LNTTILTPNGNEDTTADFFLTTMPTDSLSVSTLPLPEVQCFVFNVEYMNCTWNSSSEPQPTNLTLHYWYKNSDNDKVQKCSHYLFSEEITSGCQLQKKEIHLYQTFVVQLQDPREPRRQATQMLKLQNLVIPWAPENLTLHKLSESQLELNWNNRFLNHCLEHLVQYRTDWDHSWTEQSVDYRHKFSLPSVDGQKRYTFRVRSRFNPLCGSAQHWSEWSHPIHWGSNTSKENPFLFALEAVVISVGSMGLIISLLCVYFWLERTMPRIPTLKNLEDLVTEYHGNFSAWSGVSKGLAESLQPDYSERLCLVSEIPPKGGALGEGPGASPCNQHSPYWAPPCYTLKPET

B1: DR465(DR240-DR231) (bispecific antibody)
chain: QVQLQESGGGSVQAGGSLRLSCGASGYTYSSYCMGWFRQVPGKEREGVAVIDSDGSTSYADSVKGRFTISKDNGKNTLYLQMNSLKPEDTAMYYCAADLGHYRPPCGVLYLGMDYWGKGTQVTVSSGGGSQVQLQESGGGSVQAGGSLRLSCTASGFTFDDREMNWYRQAPGNECELVSTISSDGSTYYADSVKGRFTISQDNAKNTVYLQMDSVKPEDTAVYYCAADFMIAIQAPGAGCWGQGTQVTVSSASHHHHHH
B2: DR395(DR229-DR239) (bispecific antibody)
chain: QVQLQESGGGLVQPGGSLRLSCTASGFSFSSYPMTWARQAPGKGLEWVSTIASDGGSTAYAASVEGRFTISRDNAKSTLYLQLNSLKTEDTAMYYCTKGYGDGTPAPGQGTQVTVSSGGGSQVQLQESGGGSVQAGGSLRLSCTVSGYTYSSNCMGWFRQAPGKEREGVATIYTGGGNTYYADSVKGRFTISQDNAKNTVYLQMNNLKPEDTAMYYCAAEPLSRVYGGSCPTPTFDYWGQGTQVTVSSASHHHHHH
B3: DR471(DR241-DR231) (bispecific antibody)
chain: QVQLQESGGGSVQAGGSLRLSCAASGYSNCSYDMTWYRQAPGKEREFVSAIHSDGSTRYADSVKGRFFISQDNAKNTVYLQMNSLKPEDTAMYYCKTDPLHCRAHGGSWYSVRANYWGQGTQVTVSSGGGSQVQLQESGGGSVQAGGSLRLSCTASGFTFDDREMNWYRQAPGNECELVSTISSDGSTYYADSVKGRFTISQDNAKNTVYLQMDSVKPEDTAVYYCAADFMIAIQAPGAGCWGQGTQVTVSSASHHHHHH

Biological target: T1, IL10Rα/IL2Rγ receptor
Assay: cell-based or functional assay

pSTAT3 MFI, Monocytes, 0.0001 nM (unstimulated 2116) | pSTAT3 MFI, Monocytes, 0.001 nM (unstimulated 2116) | pSTAT3 MFI, Monocytes, 0.01 nM (unstimulated 2116) | pSTAT3 MFI, Monocytes, 0.1 nM (unstimulated 2116) | pSTAT3 MFI, Monocytes, 1 nM (unstimulated 2116) | pSTAT3 MFI, Monocytes, 10 nM (unstimulated 2116) | pSTAT3 MFI, Monocytes, 100 nM (unstimulated 2116) | Binder
1990 MFI | 1970 MFI | 1950 MFI | 1960 MFI | 2110 MFI | 2470 MFI | 2470 MFI | B1
2060 MFI | 2060 MFI | 2020 MFI | 2020 MFI | 2210 MFI | 2340 MFI | 2440 MFI | B2
2010 MFI | 2030 MFI | 2000 MFI | 1990 MFI | 2030 MFI | 2230 MFI | 2210 MFI | B3

Biological target: T1, IL10Rα/IL2Rγ receptor
Assay: cell-based or functional assay
Remark: another data set of the same source

pSTAT3 MFI, B cells, 100 nM (unstimulated 1045) | pSTAT3 MFI, CD4+ T cells, 100 nM (unstimulated 1778) | pSTAT3 MFI, CD8+ T cells, 100 nM (unstimulated 1288) | pSTAT3 MFI, Monocytes, 100 nM (unstimulated 1787) | pSTAT3 MFI, NK cells, 100 nM (unstimulated 1149) | Binder
1660 MFI | 6350 MFI | 4510 MFI | 2350 MFI | 1880 MFI | B1
1030 MFI | 3570 MFI | 2700 MFI | 2020 MFI | 1430 MFI | B2
1140 MFI | 6240 MFI | 4220 MFI | 1940 MFI | 1700 MFI | B3

Biological target: T1, IL10Rα/IL2Rγ receptor
Assay: cell-based or functional assay
Remark: another data set of the same source

pSTAT3 MFI, B cells, 0.0001 nM (unstimulated 1193.5) | pSTAT3 MFI, B cells, 0.001 nM (unstimulated 1193.5) | pSTAT3 MFI, B cells, 0.01 nM (unstimulated 1193.5) | pSTAT3 MFI, B cells, 0.1 nM (unstimulated 1193.5) | pSTAT3 MFI, B cells, 1 nM (unstimulated 1193.5) | pSTAT3 MFI, B cells, 10 nM (unstimulated 1193.5) | pSTAT3 MFI, B cells, 100 nM (unstimulated 1193.5) | Binder
1110 MFI | 1100 MFI | 1090 MFI | 1110 MFI | 1290 MFI | 1840 MFI | 1850 MFI | B1
1130 MFI | 1130 MFI | 1140 MFI | 1150 MFI | 1260 MFI | 1340 MFI | 1360 MFI | B2
1110 MFI | 1120 MFI | 1110 MFI | 1110 MFI | 1170 MFI | 1340 MFI | 1280 MFI | B3

Biological target: T1, IL10Rα/IL2Rγ receptor
Assay: cell-based or functional assay
Remark: another data set of the same source

pSTAT3 MFI, CD8 T cells, 0.0001 nM (unstimulated 1446) | pSTAT3 MFI, CD8 T cells, 0.001 nM (unstimulated 1446) | pSTAT3 MFI, CD8 T cells, 0.01 nM (unstimulated 1446) | pSTAT3 MFI, CD8 T cells, 0.1 nM (unstimulated 1446) | pSTAT3 MFI, CD8 T cells, 1 nM (unstimulated 1446) | pSTAT3 MFI, CD8 T cells, 10 nM (unstimulated 1446) | pSTAT3 MFI, CD8 T cells, 100 nM (unstimulated 1446) | Binder
1390 MFI | 1370 MFI | 1380 MFI | 1590 MFI | 3260 MFI | 4850 MFI | 5020 MFI | B1
1380 MFI | 1420 MFI | 1400 MFI | 1800 MFI | 3320 MFI | 3880 MFI | 3450 MFI | B2
1400 MFI | 1420 MFI | 1420 MFI | 1640 MFI | 3280 MFI | 4610 MFI | 4400 MFI | B3

Biological target: T1, IL10Rα/IL2Rγ receptor
Assay: cell-based or functional assay
Remark: another data set of the same source

pSTAT3 MFI, NK cells, 0.0001 nM (unstimulated 1315) | pSTAT3 MFI, NK cells, 0.001 nM (unstimulated 1315) | pSTAT3 MFI, NK cells, 0.01 nM (unstimulated 1315) | pSTAT3 MFI, NK cells, 0.1 nM (unstimulated 1315) | pSTAT3 MFI, NK cells, 1 nM (unstimulated 1315) | pSTAT3 MFI, NK cells, 10 nM (unstimulated 1315) | pSTAT3 MFI, NK cells, 100 nM (unstimulated 1315) | Binder
1220 MFI | 1230 MFI | 1220 MFI | 1250 MFI | 1520 MFI | 2040 MFI | 2130 MFI | B1
1260 MFI | 1270 MFI | 1260 MFI | 1310 MFI | 1640 MFI | 1800 MFI | 1760 MFI | B2
1230 MFI | 1260 MFI | 1250 MFI | 1260 MFI | 1530 MFI | 2000 MFI | 1940 MFI | B3

Biological target: T1, IL10Rα/IL2Rγ receptor
Assay: cell-based or functional assay
Remark: another data set of the same source

pSTAT3 MFI, CD4 T cells, 0.0001 nM (unstimulated 1887) | pSTAT3 MFI, CD4 T cells, 0.001 nM (unstimulated 1887) | pSTAT3 MFI, CD4 T cells, 0.01 nM (unstimulated 1887) | pSTAT3 MFI, CD4 T cells, 0.1 nM (unstimulated 1887) | pSTAT3 MFI, CD4 T cells, 1 nM (unstimulated 1887) | pSTAT3 MFI, CD4 T cells, 10 nM (unstimulated 1887) | pSTAT3 MFI, CD4 T cells, 100 nM (unstimulated 1887) | Binder
1800 MFI | 1800 MFI | 1850 MFI | 2210 MFI | 4730 MFI | 7240 MFI | 7070 MFI | B1
1800 MFI | 1870 MFI | 1890 MFI | 2450 MFI | 4570 MFI | 5180 MFI | 4670 MFI | B2
1800 MFI | 1860 MFI | 1860 MFI | 2250 MFI | 4600 MFI | 6800 MFI | 6200 MFI | B3
